Patent publication US20260062487A1 (GRITSTONE BIO, published 2026)
Like-named read-outs stand apart in the source and are kept apart here.

B1: 43-E07 UCHT1v9 (Format 43 31E07-CD3 bispecific antibody) (bispecific antibody, human IgG1, kappa)
chain: EVQLVESGGGLVQPGGSLRLSCAASGYSFTGYTMNWVRQAPGKGLEWVALINPYKGVSTYNQKFKDRFTISVDKSKNTAYLQMNSLRAEDTAVYYCARSGYYGDSDWYFDVWGQGTLVTVSSGGGGSGGGGSDIQMTQSPSSLSASVGDRVTITCRASQEIRRWLAWYQQKPGKAPKLLIYAASNLQSGVPSRFSGSGSGTDFTLTISSLQPEDFATYYCQQSYSTPYTFGQGTKLEIKGGGGSEPKSSDKTHTCPPCPAPEFEGGPSVFLFPPKPKDTLMISRTPEVTCVVVDVSHEDPEVKFNWYVDGVEVHNAKTKPREEQYNSTYRVVSVLTVLHQDWLNGKEYKCKVSNKALPASIEKTISKAKGQPREPQVYTLPPCREEMTKNQVSLWCLVKGFYPSDIAVEWESNGQPENNYKTTPPVLDSDGSFFLYSKLTVDKSRWQQGNVFSCSVMHEALHNHYTQKSLSLSPGK
heavy: QVQLVQSGAEVKKPGASVKVSCKASGFTFTNYLIHWVRQAPGQGLEWMGWINPNSGGTNYAQRLQGRVTMTRDTSTSTVYMELSSLRSEDTAVYYCARDYGAGNDYWGQGTLVTVSSGGGGSGGGGSDIQMTQSPSSLSASVGDRVTITCRASQDIRNYLNWYQQKPGKAPKLLIYYTSRLESGVPSRFSGSGSGTDYTLTISSLQPEDFATYYCQQGNTLPWTFGQGTKVEIKGGGGSGGGGSQVQLVQSGAEVKKPGASVKVSCKASGFTFTNYLIHWVRQAPGQGLEWMGWINPNSGGTNYAQRLQGRVTMTRDTSTSTVYMELSSLRSEDTAVYYCARDYGAGNDYWGQGTLVTVSSASTKGPSVFPLAPSSKSTSGGTAALGCLVKDYFPEPVTVSWNSGALTSGVHTFPAVLQSSGLYSLSSVVTVPSSSLGTQTYICNVNHKPSNTKVDKRVEPKSCDKTHTCPPCPAPEFEGGPSVFLFPPKPKDTLMISRTPEVTCVVVDVSHEDPEVKFNWYVDGVEVHNAKTKPREEQYNSTYRVVSVLTVLHQDWLNGKEYKCKVSNKALPASIEKTISKAKGQPREPQVCTLPPSREEMTKNQVSLSCAVKGFYPSDIAVEWESNGQPENNYKTTPPVLDSDGSFFLVSKLTVDKSRWQQGNVFSCSVMHEALHNRFTQKSLSLSPGK
light: DIQMTQSPSSLSASVGDRVTITCRASQEIRRWLAWYQQKPGKAPKLLIYAASNLQSGVPSRFSGSGSGTDFTLTISSLQPEDFATYYCQQSYSTPYTFGQGTKLEIKRTVAAPSVFIFPPSDEQLKSGTASVVCLLNNFYPREAKVQWKVDNALQSGNSQESVTEQDSKDSTYSLSSTLTLSKADYEKHKVYACEVTHQGLSSPVTKSFNRGEC
notes: also called 43-E07 hUCHT1v9; 43-31E07-GGGGS-UCHT1v9
B2: 41-E07 UCHT1v9 (Format 41 31E07-CD3 bispecific antibody) (bispecific antibody, human IgG1, kappa)
chain: QVQLVQSGAEVKKPGASVKVSCKASGFTFTNYLIHWVRQAPGQGLEWMGWINPNSGGTNYAQRLQGRVTMTRDTSTSTVYMELSSLRSEDTAVYYCARDYGAGNDYWGQGTLVTVSSGGGGSGGGGSDIQMTQSPSSLSASVGDRVTITCRASQEIRRWLAWYQQKPGKAPKLLIYAASNLQSGVPSRFSGSGSGTDFTLTISSLQPEDFATYYCQQSYSTPYTFGQGTKLEIKGGGGSEPKSSDKTHTCPPCPAPEFEGGPSVFLFPPKPKDTLMISRTPEVTCVVVDVSHEDPEVKFNWYVDGVEVHNAKTKPREEQYNSTYRVVSVLTVLHQDWLNGKEYKCKVSNKALPASIEKTISKAKGQPREPQVYTLPPCREEMTKNQVSLWCLVKGFYPSDIAVEWESNGQPENNYKTTPPVLDSDGSFFLYSKLTVDKSRWQQGNVFSCSVMHEALHNHYTQKSLSLSPGK
heavy: QVQLVQSGAEVKKPGASVKVSCKASGFTFTNYLIHWVRQAPGQGLEWMGWINPNSGGTNYAQRLQGRVTMTRDTSTSTVYMELSSLRSEDTAVYYCARDYGAGNDYWGQGTLVTVSSGGGGSGGGGSDIQMTQSPSSLSASVGDRVTITCRASQEIRRWLAWYQQKPGKAPKLLIYAASNLQSGVPSRFSGSGSGTDFTLTISSLQPEDFATYYCQQSYSTPYTFGQGTKLEIKGGGGSGGGGSEVQLVESGGGLVQPGGSLRLSCAASGYSFTGYTMNWVRQAPGKGLEWVALINPYKGVSTYNQKFKDRFTISVDKSKNTAYLQMNSLRAEDTAVYYCARSGYYGDSDWYFDVWGQGTLVTVSSASTKGPSVFPLAPSSKSTSGGTAALGCLVKDYFPEPVTVSWNSGALTSGVHTFPAVLQSSGLYSLSSVVTVPSSSLGTQTYICNVNHKPSNTKVDKRVEPKSCDKTHTCPPCPAPEFEGGPSVFLFPPKPKDTLMISRTPEVTCVVVDVSHEDPEVKFNWYVDGVEVHNAKTKPREEQYNSTYRVVSVLTVLHQDWLNGKEYKCKVSNKALPASIEKTISKAKGQPREPQVCTLPPSREEMTKNQVSLSCAVKGFYPSDIAVEWESNGQPENNYKTTPPVLDSDGSFFLVSKLTVDKSRWQQGNVFSCSVMHEALHNRFTQKSLSLSPGK
light: not shown
notes: also called 41-31E07-UCHT1v9; 41-E07 hUCHT1v9
B3: 41-G5(1C12) UCHT1v9 diabody (bispecific antibody, human IgG1, kappa)
chain: QVQLVQSGAEVKKPGSSVKVSCKASGGTFSNFGVSWLRQAPGQGLEWMGGIIPILGTANYAQKFQGRVTITADESTSTAYMELSSLRSEDTAVYYCATPTNSGYYGPYYYYGMDVWGQGTTVTVSSGGGGSGGGGSDIQMTQSPSSLSASVGDRVTITCRASQSISSWLAWYQQKPGKAPKLLIYAASTLQSGVPSRFSGSGSGTDFTLTISSLQPEDFATYYCQQSYSIPLTFGGGTKVEIKGGGGSEPKSSDKTHTCPPCPAPEFEGGPSVFLFPPKPKDTLMISRTPEVTCVVVDVSHEDPEVKFNWYVDGVEVHNAKTKPREEQYNSTYRVVSVLTVLHQDWLNGKEYKCKVSNKALPASIEKTISKAKGQPREPQVYTLPPCREEMTKNQVSLWCLVKGFYPSDIAVEWESNGQPENNYKTTPPVLDSDGSFFLYSKLTVDKSRWQQGNVFSCSVMHEALHNHYTQKSLSLSPGK
heavy: QVQLVQSGAEVKKPGSSVKVSCKASGGTFSNFGVSWLRQAPGQGLEWMGGIIPILGTANYAQKFQGRVTITADESTSTAYMELSSLRSEDTAVYYCATPTNSGYYGPYYYYGMDVWGQGTTVTVSSGGGGSGGGGSDIQMTQSPSSLSASVGDRVTITCRASQSISSWLAWYQQKPGKAPKLLIYAASTLQSGVPSRFSGSGSGTDFTLTISSLQPEDFATYYCQQSYSIPLTFGGGTKVEIKGGGGSGGGGSEVQLVESGGGLVQPGGSLRLSCAASGYSFTGYTMNWVRQAPGKGLEWVALINPYKGVSTYNQKFKDRFTISVDKSKNTAYLQMNSLRAEDTAVYYCARSGYYGDSDWYFDVWGQGTLVTVSSASTKGPSVFPLAPSSKSTSGGTAALGCLVKDYFPEPVTVSWNSGALTSGVHTFPAVLQSSGLYSLSSVVTVPSSSLGTQTYICNVNHKPSNTKVDKRVEPKSCDKTHTCPPCPAPEFEGGPSVFLFPPKPKDTLMISRTPEVTCVVVDVSHEDPEVKFNWYVDGVEVHNAKTKPREEQYNSTYRVVSVLTVLHQDWLNGKEYKCKVSNKALPASIEKTISKAKGQPREPQVCTLPPSREEMTKNQVSLSCAVKGFYPSDIAVEWESNGQPENNYKTTPPVLDSDGSFFLVSKLTVDKSRWQQGNVFSCSVMHEALHNRFTQKSLSLSPGK
light: not shown
notes: also called 41-G5(1C12) hUCHT1v9; 41-G5 UCHT1v9

Columns and labels:
[1] = target: T1, HLA-PEPTIDE target A*01:01_… (G2) on cells (human); assay: flow cytometry, anti IgG PE, A375 9mer cells (1e6 copies per cell)
T1 construct: whole, on cells; also recovered from cell lysates in the IP-MS experiment; also called G2 pHLA; G2 target
Procedure: (§1) A375 transduced with luciferase alone served as the negative control. […] Binding was determined by flow cytometery using an anti IgG-PE antibody for detection.

[2] = target: T1, HLA-PEPTIDE target A*01:01_… (G2) on …; assay: flow cytometry, A375 cells expressing the CT83 pHLA 9-mer
Procedure: as §1

[3] = target: T2, refolded A*01:01/b2m complex with the ROBO1 peptide … (human, UniProt P61769 21-119); assay: BLI (Octet), refolded pHLA
T2 construct: also called ROBO1 pHLA complex

CD3 on CD3+ Jurkat cells [4] = target: T3, CD3 on CD3+ Jurkat cells (human, UniProt P07766 23-207); assay: flow cytometry, anti IgG PE, CD3+ Jurkat cells
T3 construct: whole, on cells
T3 sequence (P07766 23-207): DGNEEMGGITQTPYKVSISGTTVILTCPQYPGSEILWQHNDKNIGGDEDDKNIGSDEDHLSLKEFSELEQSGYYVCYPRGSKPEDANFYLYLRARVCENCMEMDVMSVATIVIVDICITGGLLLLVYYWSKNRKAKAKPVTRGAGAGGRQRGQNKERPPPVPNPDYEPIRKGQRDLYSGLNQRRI

CD3 on CD3+ Jurkat cells [5] = target: T3, CD3 on CD3+ Jurkat cells; assay: flow cytometry, anti IgG PE, CD3+ Jurkat cells; remark: listed apart in the source
Procedure: Increasing concentrations of the antibodies were incubated with CD3(+) and CD9(−) Jurkat cells. Binding was determined by flow cytometery using an anti IgG-PE antibody for detection.

[6] = target: T1, HLA-PEPTIDE target A*01:01_… (G2) on …; assay: flow cytometry, anti IgG PE, A375 9mer cells (1e6 copies per cell); remark: listed apart in the source
Procedure: as §1

[7] = target: T4, biotinylated refolded G2-pHLA (A*01:01/b2m/…) (human, biotinylated at the C-terminal AviTag); assay: Octet biolayer interferometry, 120 s association and 120 s dissociation
T4 construct: Soluble complex caught on streptavidin sensors or MSD plates; also called G2-peptide A*01:01/b2m complex; WT

[8] = target: T2, refolded A*01:01/b2m complex with the …; assay: as above
[9] = target: T5, G5 pHLA (HLA-B*35:01 with …) on cells (human); assay: flow cytometry, anti IgG PE, LN229 G5 9mer cells (4500 copies per cell)
T5 construct: whole, on cells

Binder	EC50 (read off the curve) [1] [nM]	fold increase in binding against 41-E07 UCHT1v9 [2] [fold]	times less binding affinity than to the G2-peptide A*01:01/b2m complex [3] [fold]	EC50 (read off the curve) (CD3 on CD3+ Jurkat cells [4]) [nM]	EC50 (read off the curve) (CD3 on CD3+ Jurkat cells [5]) [nM]	EC50 (read off the curve) [6] [nM]	Kd [7] [nM]	koff [7] [s⁻¹]	kon [7] [M⁻¹ s⁻¹]	Kd [8] [nM]	koff [8] [s⁻¹]	kon [8] [M⁻¹ s⁻¹]	EC50 (read off the curve) [9] [nM]
B1	~0.3	~10	–	–	–	–	–	–	–	–	–	–	–
B2	~2	–	5000	~2	~3	~2	< 0.001	< 1e-07	566000	5.52	0.00557	1.01e+06	–
B3	–	–	–	~4	–	–	–	–	–	–	–	–	~4
